The source of these data is patent publication US20230149509A1 (Genentech, published 2023).

The target in test [1] is T1, CD122/CD132 on cynomolgus monkey lymphocytes (CD8+ T cells and NK cells in cynomolgus PBMCs) (cynomolgus monkey, UniProt Q38J85 27-551; A0A2K5VGJ6 23-369).
T1 sequence (looked up) 1: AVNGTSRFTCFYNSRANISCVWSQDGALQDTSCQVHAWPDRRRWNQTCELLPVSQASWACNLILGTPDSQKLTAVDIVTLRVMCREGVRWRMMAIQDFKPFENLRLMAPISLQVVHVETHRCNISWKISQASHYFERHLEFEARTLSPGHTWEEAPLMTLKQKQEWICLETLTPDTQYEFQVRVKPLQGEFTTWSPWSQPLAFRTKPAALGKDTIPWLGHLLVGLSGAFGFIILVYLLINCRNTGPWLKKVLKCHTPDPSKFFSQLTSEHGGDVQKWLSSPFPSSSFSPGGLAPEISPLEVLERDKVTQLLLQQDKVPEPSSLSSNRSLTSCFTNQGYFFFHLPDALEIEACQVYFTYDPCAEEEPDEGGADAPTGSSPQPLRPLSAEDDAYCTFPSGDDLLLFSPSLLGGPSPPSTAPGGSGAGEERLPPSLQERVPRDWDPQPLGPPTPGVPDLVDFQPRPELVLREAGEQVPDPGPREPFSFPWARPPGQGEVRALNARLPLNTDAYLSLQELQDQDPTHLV
T1 sequence (looked up) 2: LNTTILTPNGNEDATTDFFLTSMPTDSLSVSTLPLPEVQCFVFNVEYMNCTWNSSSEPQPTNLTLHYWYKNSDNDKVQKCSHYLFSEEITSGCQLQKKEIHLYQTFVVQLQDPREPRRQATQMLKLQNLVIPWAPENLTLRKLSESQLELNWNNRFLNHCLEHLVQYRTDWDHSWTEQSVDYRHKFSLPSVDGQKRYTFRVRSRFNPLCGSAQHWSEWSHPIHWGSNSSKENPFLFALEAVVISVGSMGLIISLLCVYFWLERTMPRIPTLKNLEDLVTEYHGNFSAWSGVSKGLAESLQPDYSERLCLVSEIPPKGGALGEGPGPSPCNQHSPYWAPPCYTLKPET
Put plainly: cell-based or functional assay.

Test [2] has as its target T2, CD122/CD132 on human lymphocytes (CD8+ T cells and NK cells in human PBMCs) (human, UniProt P31785 23-369).
T2 sequence 1: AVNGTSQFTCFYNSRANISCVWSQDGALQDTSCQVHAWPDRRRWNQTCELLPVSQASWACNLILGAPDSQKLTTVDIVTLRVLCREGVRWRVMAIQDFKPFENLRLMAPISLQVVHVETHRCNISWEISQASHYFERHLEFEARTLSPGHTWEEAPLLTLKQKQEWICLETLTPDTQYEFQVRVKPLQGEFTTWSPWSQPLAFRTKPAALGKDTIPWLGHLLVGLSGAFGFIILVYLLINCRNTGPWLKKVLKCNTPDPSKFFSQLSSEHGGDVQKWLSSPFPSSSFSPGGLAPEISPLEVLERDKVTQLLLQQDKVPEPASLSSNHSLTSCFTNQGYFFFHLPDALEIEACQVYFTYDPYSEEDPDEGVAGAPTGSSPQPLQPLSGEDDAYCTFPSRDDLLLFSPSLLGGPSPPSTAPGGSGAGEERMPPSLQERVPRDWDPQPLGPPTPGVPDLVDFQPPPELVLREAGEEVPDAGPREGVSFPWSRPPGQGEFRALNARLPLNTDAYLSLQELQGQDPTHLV
T2 sequence 2: T1 sequence (looked up) 2 with A14T, T16A, S22T, R141H, S228T, P326A
In words: cell-based or functional assay.

Another test deals with T3, mouse FcRn (mouse, UniProt Q61559 22-297; P01887 21-119).
T3 construct: The construct is not described
T3 sequence (looked up): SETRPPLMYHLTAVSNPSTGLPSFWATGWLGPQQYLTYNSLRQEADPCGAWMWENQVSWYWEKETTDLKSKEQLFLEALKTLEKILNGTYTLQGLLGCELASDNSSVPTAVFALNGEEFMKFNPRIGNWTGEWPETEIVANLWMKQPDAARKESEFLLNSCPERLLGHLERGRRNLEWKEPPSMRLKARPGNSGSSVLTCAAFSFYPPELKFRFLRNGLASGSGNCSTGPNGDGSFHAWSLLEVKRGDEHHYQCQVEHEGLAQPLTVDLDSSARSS
T3 sequence (b2m, looked up): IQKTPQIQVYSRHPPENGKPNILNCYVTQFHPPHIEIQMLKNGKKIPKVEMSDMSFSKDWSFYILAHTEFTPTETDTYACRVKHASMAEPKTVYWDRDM
In words: BLI, pH 6.0; tested as the mixture.

A further test deals with T4, cynomolgus monkey FcRn (cynomolgus monkey, UniProt Q8SPV9 24-297; Q8SPW0 21-119).
T4 construct: The construct is not described
Put plainly: BLI, pH 6.0; tested as the mixture.

The next test addresses T5, human FcRn (human, UniProt P55899 24-297; P61769 21-119).
T5 construct: The construct is not described; also called human neonatal Fc receptor
In words: BLI, pH 6.0; tested as the mixture.

Test [3] has as its target T6, human complement component 1q (C1q) (human, UniProt P02745 23-245; P02746 28-253; P02747 29-245).
T6 construct: The subunit composition is from general knowledge; also called human C1q
Put plainly: BLI; tested as the mixture XENP24306+XENP32803.

Where a chain is given by its changes, count along the chain named.

T5 sequence (P55899 24-297 limits assumed, chain 1 of 2): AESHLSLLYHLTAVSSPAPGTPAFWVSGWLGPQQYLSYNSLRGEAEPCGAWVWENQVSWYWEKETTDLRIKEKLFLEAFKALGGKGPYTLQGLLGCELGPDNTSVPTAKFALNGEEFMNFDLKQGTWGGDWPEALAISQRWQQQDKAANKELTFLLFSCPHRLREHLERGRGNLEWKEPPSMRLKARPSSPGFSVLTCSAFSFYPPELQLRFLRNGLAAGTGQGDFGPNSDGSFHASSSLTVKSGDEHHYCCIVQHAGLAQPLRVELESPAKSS
T5 sequence (P61769 21-119 limits assumed, chain 2 of 2): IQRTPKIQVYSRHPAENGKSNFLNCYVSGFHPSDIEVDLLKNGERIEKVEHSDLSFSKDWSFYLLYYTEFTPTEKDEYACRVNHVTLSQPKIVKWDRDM
T4 sequence (Q8SPV9 24-297 limits assumed, chain 1 of 2): as the sequence (P55899 24-297 limits assumed, chain 1 of 2) above, with N39D, E44Q, G99S, S189G, S190N, L217M, S269T counted along it
T4 sequence (Q8SPW0 21-119 limits assumed, chain 2 of 2): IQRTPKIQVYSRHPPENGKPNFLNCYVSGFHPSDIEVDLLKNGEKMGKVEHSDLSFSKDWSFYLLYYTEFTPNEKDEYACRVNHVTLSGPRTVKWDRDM
T6 sequence (P02745 23-245 limits assumed, chain 1 of 3): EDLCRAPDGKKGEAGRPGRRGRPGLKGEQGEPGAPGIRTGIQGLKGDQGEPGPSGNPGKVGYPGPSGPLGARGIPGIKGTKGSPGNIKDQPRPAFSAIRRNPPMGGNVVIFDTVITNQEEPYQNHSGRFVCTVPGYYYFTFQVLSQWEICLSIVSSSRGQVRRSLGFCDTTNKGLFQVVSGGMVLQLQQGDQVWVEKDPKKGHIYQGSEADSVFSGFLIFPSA
T6 sequence (P02746 28-253 limits assumed, chain 2 of 3): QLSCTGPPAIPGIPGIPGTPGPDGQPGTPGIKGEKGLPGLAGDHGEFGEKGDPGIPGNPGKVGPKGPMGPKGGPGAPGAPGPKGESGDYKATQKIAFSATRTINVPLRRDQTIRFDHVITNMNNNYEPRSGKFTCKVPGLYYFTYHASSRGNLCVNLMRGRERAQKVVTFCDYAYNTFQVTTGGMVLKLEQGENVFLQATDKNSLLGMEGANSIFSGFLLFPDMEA
T6 sequence (P02747 29-245 limits assumed, chain 3 of 3): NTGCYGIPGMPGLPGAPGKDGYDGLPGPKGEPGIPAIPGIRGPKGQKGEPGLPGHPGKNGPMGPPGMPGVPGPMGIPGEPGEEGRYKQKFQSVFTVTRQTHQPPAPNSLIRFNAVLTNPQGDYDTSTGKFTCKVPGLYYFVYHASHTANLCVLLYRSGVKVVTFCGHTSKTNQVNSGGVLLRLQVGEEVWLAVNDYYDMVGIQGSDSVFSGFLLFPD

B1: XENP24306 (Fc fusion)
chain 1: NWVNVISDLKKIEDLIQSMHIDATLYTESNVHPSCKVTAMKCFLLELQVISLESGDASIHDTVQDLIILANNSLSSNGNVTESGCKECEELEEKNIKEFLQSFVHIVQMFINTSGGGGSEPKSSDKTHTCPPCPAPPVAGPSVFLFPPKPKDTLMISRTPEVTCVVVDVKHEDPEVKFNWYVDGVEVHNAKTKPREEEYNSTYRVVSVLTVLHQDWLNGKEYKCKVSNKALPAPIEKTISKAKGQPREPQVYTLPPSREEMTKNQVSLTCDVSGFYPSDIAVEWESDGQPENNYKTTPPVLDSDGSFFLYSKLTVDKSRWEQGDVFSCSVLHEALHSHYTQKSLSLSPGK
chain 2: ITCPPPMSVEHADIWVKSYSLYSRERYICNSGFKRKAGTSSLTECVLNKATNVAHWTTPSLKCIRGGGGSEPKSSDKTHTCPPCPAPPVAGPSVFLFPPKPKDTLMISRTPEVTCVVVDVKHEDPEVKFNWYVDGVEVHNAKTKPREEQYNSTYRVVSVLTVLHQDWLNGKEYKCKVSNKALPAPIEKTISKAKGQPREPQVYTLPPSREQMTKNQVKLTCLVKGFYPSDIAVEWESNGQPENNYKTTPPVLDSDGSFFLYSKLTVDKSRWQQGNVFSCSVLHEALHSHYTQKSLSLSPGK
notes: All experiments used a mixture of XENP24306 (~82%) and XENP32803 (~18%), printed as 'XENP24306+XENP32803'; Each result is written once for each of the two members; also called XmAb24306; XENP24306+XENP32803 (the ~82% component of the tested combination)
B1: in test [1], the “CD8+ T cell proliferation in cynomolgus monkey PBMCs, EC50” value amounted to 3.8 µg/mL and the “NK-cell proliferation in cynomolgus monkey PBMCs, EC50” value was found to be 0.5 µg/mL. For the same molecule, in test [2], the “CD8+ T cell proliferation (Ki67+) in human PBMCs, EC50” value turned out to be 12.7 µg/mL; the “NK-cell proliferation (Ki67+) in human PBMCs, EC50” value is 1.2 µg/mL; the “potency on CD8+ terminal effector T cell proliferation (Ki67) in human PBMC, fold lower than XENP22853 (wild-type IL-15/wild-type IL-15Rα heterodimer Fc fusion)” value was approximately 400 fold; the “potency on CD8+ terminal effector T cell proliferation (Ki67) in human PBMC, fold lower than recombinant wild-type IL-15” value was approximately 900 fold. In the test with mouse FcRn, the binding result is “binds”. For the same molecule, the binding result with cynomolgus monkey FcRn is reported as “binds”. Further, the binding result in the test with human FcRn is recorded as “binds”. Moreover, the binding result in test [3] was “no binding”.

B2: XENP32803 (Fc fusion)
chain 1: B1 chain 1
chain 2: B1 chain 2 with K100T
notes: All experiments used a mixture of XENP24306 (~82%) and XENP32803 (~18%), printed as 'XENP24306+XENP32803'; Each result is written once for each of the two members; also called XENP24306+XENP32803 (the ~18% component of the tested combination); IL15/IL15Rα heterodimeric protein
B2: in test [1], the “CD8+ T cell proliferation in cynomolgus monkey PBMCs, EC50” value was 3.8 µg/mL and the “NK-cell proliferation in cynomolgus monkey PBMCs, EC50” value was determined as 0.5 µg/mL. In test [2], the “CD8+ T cell proliferation (Ki67+) in human PBMCs, EC50” value was found to be 12.7 µg/mL; the “NK-cell proliferation (Ki67+) in human PBMCs, EC50” value amounted to 1.2 µg/mL; the “potency on CD8+ terminal effector T cell proliferation (Ki67) in human PBMC, fold lower than XENP22853 (wild-type IL-15/wild-type IL-15Rα heterodimer Fc fusion)” value was approximately 400 fold; the “potency on CD8+ terminal effector T cell proliferation (Ki67) in human PBMC, fold lower than recombinant wild-type IL-15” value was approximately 900 fold. For the same molecule, in the test with mouse FcRn, the binding result is on record as “binds”. Moreover, in the test with cynomolgus monkey FcRn, the binding result was “binds”. Further, in the test with human FcRn, the binding result was “binds”. The binding result in test [3] is “no binding”.
